# Experimental data: the supplement of paper PMC10065799, “High-throughput profiling of sequence recognition by tyrosine kinases and SH2 domains using bacterial peptide display” (eLife, 2023)
# Legend:
# c-Src = assay: phosphorylation enrichment, bacterial display (enrichment ratio); higher = better substrate or ligand; peptides without Tyr show the background
# c-Abl (mouse) = assay: as above
# Hck = Hck (UniProt P08631); assay: as above
# MERTK = MERTK (UniProt Q12866); assay: as above
# AncSZ = assay: as above
# EPHB2 = EPHB2 (UniProt P29323); assay: as above
# Fyn = Fyn (UniProt P06241); assay: as above
# Fes = Fes (UniProt P07332); assay: as above
# Jak2 = Jak2 (UniProt O60674); assay: as above
# FGFR1 = FGFR1 (UniProt P11362); assay: as above
# FGFR3 = FGFR3 (UniProt P22607); assay: as above
# EPHB1 = EPHB1 (UniProt P54762); assay: as above
# Fer (mouse) = assay: as above
# SHP2-C SH2 = assay: SH2 binding enrichment of the phosphorylated peptide, bacterial display (enrichment ratio); higher = better substrate or ligand; peptides without Tyr show the background
# c-Src SH2 = assay: as above
# Grb2 SH2 = Grb2 SH2 (UniProt P62993); assay: as above
# 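Throughout, for SH2 binding enrichment of the phosphorylated peptide, bacterial display: peptide library displayed on the E. coli surface as eCPX fusions, selected cells deep-sequenced, score is each peptide's frequency after selection divided by its frequency in the input.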
# 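Throughout, for phosphorylation enrichment, bacterial display: 11-residue human phosphosite peptides and single-mutation variants displayed on the E. coli surface, counted by deep sequencing, each peptide's frequency after selection divided by its frequency in the unselected input library; frequency after pTyr selection over input frequency; kinase dosed for 20-30% of maximal phosphorylation in three min.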
# Chain of FGFR3 (P22607 whole entry, looked up): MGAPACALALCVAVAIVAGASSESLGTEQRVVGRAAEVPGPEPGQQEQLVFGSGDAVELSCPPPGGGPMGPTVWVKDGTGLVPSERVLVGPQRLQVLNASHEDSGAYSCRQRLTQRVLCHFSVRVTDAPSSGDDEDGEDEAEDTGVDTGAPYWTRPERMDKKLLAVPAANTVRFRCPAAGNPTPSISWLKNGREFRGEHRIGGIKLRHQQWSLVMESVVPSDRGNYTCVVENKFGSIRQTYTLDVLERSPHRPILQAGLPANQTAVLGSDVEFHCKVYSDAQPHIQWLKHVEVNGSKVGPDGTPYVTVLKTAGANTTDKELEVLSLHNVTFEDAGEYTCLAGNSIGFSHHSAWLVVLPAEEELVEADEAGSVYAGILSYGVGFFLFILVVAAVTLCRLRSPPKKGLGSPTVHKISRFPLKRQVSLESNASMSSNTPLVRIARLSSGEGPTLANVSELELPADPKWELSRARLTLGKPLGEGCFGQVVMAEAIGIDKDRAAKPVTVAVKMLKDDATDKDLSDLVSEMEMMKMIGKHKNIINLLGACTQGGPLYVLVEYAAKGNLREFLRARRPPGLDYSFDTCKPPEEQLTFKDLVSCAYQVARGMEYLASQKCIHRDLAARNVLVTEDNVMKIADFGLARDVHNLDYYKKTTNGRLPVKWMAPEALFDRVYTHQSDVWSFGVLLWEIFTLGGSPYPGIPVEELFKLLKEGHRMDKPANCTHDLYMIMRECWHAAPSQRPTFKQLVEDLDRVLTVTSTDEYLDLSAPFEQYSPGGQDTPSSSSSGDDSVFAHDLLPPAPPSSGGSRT
# Chain of EPHB2 (P29323 whole entry, looked up): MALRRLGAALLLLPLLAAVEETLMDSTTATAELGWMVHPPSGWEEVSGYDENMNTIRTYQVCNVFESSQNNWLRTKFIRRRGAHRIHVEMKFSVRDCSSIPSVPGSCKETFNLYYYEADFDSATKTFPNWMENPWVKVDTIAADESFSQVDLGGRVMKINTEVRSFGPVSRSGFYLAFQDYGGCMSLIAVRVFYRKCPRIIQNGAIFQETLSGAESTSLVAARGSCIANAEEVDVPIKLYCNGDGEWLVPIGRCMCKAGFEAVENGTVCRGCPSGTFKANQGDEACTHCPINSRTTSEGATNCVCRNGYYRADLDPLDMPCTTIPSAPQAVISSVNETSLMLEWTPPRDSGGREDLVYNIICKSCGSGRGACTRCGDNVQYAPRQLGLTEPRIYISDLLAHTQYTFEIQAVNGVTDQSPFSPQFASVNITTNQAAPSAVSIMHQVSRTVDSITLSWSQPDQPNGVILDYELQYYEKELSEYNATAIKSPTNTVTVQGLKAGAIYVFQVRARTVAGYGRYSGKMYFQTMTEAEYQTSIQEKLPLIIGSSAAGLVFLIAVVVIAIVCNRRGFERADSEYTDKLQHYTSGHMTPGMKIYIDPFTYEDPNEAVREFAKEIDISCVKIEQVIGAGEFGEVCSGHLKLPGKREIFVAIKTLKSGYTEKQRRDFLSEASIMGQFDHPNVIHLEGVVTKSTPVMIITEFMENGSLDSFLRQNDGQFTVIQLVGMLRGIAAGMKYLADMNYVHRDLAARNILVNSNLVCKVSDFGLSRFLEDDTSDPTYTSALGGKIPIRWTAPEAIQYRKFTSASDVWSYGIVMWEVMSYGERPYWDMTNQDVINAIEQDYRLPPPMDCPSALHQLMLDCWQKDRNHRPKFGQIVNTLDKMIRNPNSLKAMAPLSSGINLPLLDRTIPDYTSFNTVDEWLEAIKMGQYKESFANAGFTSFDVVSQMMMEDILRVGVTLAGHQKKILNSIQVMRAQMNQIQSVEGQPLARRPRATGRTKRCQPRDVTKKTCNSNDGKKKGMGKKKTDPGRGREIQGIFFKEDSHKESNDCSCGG
# Chain of FGFR1 (P11362 whole entry, looked up): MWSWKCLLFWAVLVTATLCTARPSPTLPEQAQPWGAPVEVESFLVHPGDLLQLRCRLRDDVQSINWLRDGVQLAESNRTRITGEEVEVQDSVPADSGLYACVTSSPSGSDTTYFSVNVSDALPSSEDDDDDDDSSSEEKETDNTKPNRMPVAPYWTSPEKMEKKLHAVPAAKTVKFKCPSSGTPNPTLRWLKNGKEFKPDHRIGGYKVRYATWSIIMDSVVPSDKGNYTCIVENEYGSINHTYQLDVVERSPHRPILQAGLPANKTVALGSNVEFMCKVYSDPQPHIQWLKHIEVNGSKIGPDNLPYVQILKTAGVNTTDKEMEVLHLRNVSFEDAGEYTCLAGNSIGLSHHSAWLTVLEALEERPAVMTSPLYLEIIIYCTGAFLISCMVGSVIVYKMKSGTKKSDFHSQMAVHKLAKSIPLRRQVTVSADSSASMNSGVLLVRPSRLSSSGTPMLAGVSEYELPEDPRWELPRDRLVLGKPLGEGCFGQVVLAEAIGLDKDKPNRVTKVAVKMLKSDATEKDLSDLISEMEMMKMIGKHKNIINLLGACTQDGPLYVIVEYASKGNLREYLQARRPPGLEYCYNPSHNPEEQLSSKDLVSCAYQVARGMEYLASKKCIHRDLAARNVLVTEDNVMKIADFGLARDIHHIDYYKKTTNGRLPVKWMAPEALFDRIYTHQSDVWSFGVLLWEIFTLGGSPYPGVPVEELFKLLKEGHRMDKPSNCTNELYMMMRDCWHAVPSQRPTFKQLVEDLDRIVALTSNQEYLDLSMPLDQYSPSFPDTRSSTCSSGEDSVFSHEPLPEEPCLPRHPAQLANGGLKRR
# Chain of EPHB1 (P54762 whole entry, looked up): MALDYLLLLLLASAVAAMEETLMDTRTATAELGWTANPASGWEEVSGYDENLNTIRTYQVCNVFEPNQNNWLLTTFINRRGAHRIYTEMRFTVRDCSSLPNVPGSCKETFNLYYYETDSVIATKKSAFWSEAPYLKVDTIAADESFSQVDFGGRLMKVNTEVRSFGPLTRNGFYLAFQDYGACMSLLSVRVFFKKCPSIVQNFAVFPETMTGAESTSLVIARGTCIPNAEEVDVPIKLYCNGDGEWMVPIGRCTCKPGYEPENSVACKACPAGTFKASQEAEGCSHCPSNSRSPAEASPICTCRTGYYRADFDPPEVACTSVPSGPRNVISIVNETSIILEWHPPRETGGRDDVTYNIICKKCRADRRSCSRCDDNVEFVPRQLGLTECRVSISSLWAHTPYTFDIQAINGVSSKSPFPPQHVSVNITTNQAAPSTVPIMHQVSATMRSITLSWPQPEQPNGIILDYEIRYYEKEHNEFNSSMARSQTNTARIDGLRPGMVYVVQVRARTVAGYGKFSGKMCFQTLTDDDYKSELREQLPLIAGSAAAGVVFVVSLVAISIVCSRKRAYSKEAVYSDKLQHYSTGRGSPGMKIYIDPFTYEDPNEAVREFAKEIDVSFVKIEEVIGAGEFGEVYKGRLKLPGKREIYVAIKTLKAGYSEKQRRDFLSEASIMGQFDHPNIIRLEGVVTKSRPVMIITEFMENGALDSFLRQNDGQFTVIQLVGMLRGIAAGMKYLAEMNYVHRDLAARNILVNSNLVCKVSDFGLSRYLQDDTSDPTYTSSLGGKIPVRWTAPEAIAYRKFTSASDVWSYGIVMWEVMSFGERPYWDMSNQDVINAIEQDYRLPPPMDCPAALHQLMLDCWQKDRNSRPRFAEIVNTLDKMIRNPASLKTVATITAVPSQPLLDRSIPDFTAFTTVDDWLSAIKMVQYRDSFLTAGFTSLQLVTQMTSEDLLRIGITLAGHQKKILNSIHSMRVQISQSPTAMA
# Chain of Fyn (P06241 whole entry, looked up): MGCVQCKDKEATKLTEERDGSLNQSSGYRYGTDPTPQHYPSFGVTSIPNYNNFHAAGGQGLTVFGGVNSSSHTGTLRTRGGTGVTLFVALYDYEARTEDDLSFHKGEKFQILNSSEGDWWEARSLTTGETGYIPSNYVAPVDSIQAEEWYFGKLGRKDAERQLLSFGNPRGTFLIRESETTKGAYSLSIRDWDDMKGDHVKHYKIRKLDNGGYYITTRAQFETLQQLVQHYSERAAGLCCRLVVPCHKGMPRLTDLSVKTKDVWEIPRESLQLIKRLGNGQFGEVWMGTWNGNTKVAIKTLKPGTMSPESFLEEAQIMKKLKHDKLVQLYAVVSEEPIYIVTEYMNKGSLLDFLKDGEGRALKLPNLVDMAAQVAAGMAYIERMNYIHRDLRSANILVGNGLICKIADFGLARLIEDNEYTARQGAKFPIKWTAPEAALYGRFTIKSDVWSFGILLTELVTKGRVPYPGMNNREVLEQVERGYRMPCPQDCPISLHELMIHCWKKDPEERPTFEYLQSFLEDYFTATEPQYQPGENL
# Chain of Hck (P08631 whole entry, looked up): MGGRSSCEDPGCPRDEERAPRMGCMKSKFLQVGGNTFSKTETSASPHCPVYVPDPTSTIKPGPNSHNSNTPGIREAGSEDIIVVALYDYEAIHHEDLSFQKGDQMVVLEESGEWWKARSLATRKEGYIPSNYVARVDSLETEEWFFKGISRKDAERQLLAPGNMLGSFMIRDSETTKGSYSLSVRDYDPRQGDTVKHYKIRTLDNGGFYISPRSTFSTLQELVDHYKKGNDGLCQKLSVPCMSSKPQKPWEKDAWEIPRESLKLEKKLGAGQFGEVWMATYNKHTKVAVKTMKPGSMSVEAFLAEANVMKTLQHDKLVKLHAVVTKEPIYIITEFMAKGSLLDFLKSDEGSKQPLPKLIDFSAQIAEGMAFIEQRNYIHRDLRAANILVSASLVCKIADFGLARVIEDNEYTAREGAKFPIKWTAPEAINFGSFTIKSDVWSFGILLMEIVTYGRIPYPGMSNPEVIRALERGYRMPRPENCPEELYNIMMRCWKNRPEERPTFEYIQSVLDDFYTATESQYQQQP
SH2 binding enrichment (SHP2-C SH2),SH2 binding enrichment (c-Src SH2),SH2 binding enrichment (Grb2 SH2),Sequence,phosphorylation enrichment (c-Src),phosphorylation enrichment (c-Abl (mouse)),phosphorylation enrichment (Hck),phosphorylation enrichment (MERTK),phosphorylation enrichment (AncSZ),phosphorylation enrichment (EPHB2),phosphorylation enrichment (Fyn),phosphorylation enrichment (Fes),phosphorylation enrichment (Jak2),phosphorylation enrichment (FGFR1),phosphorylation enrichment (FGFR3),phosphorylation enrichment (EPHB1),phosphorylation enrichment (Fer (mouse))
0.637,0.423,0.69,AAALAYGLDKS [HSPA9_Y230],0.528,0.499,0.419,0.398,0.598,0.4,0.388,1.12,1.2,0.455,0.477,0.442,0.467
0.633,0.545,0.785,AAGGRYDGLLG [HARS2_Y364_V368L],0.468,1.01,0.459,0.451,0.631,0.415,0.548,0.85,0.645,0.457,0.531,0.471,0.452
0.514,0.505,0.806,AAGGRYDGLVG [HARS1_Y363],0.348,0.538,0.351,0.378,0.677,0.351,0.346,0.615,0.489,0.291,0.48,0.357,0.306
0.639,0.608,1.15,AAQNCYKVTNA [TPI1_Y105_G110A],0.44,0.466,0.36,0.62,0.522,0.455,0.454,0.639,0.552,0.367,0.46,0.355,0.354
0.647,0.455,0.75,AAVNGYAFGGG [ECHS1_Y137],0.379,0.548,0.344,0.324,0.495,0.389,0.423,0.553,0.521,0.435,0.406,0.347,0.473
0.73,0.39,0.659,ADKAAYLQNLN [MYH1_Y389],0.601,0.488,0.61,0.522,0.718,0.52,0.645,0.747,0.617,0.458,0.637,0.44,0.53
0.581,0.494,0.898,AEFGLYAAMVR [VSX2_Y222_G223A_YF],2.17,1.09,4.34,2.69,1.29,2.14,2.44,1.24,1.54,0.614,0.888,2.79,1.4
1.13,0.683,0.688,AELVQYYMEHH [PTPN11_Y80],0.845,0.826,0.974,0.68,1.2,1.01,0.654,1.26,1.19,0.827,0.954,1.06,0.494
